Experimental data published in US6416738B1, “Pretargeting methods and compounds” (NeoRx Corporation, priority 1973, dated 2002).

Experiments:
NR-LU-10 antigen = target: T1, NR-LU-10 antigen (Homo sapiens, UniProt P16422); experiment: NR-LU-10 tumor tissue reactivity (Table A); format: binding
T1 construct: Positive NR-LU-10 tissue reactivity indicates NR-LU-10 antigen expression by such tissues; from tissue; host or cells: carcinoma and normal tissue specimens
T1 sequence (P16422 24-314): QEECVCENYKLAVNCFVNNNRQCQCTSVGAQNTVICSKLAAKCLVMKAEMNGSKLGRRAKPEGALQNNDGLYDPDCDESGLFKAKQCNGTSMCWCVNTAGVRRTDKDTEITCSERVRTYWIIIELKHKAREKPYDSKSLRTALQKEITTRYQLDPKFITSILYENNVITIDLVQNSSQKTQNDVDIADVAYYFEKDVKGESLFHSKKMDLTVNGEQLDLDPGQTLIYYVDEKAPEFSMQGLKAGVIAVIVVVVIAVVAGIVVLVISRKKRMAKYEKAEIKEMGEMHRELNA
Excerpt: Radioimmunoassays, immunoprecipitation and Fluorescence-Activated Cell Sorter (FACS) analysis were used to obtain reactivity profiles of NR-LU-10. The NR-LU-10 target antigen was present on either fixed cultured cells or in detergent extracts of various types of cancer cells. For example, the NR-LU-10 antigen is found in small cell lung, non-small cell lung, colon, breast, renal, ovarian, pancreatic, and other carcinoma tissues. Tumor reactivity of the NR-LU-10 antibody is set forth in Table A, while NR-LU-10 reactivity with normal tissues is set forth in Table B. The values in Table B are obtained as described below. Positive NR-LU-10 tissue reactivity indicates NR-LU-10 antigen expression by such tissues.

[1] = Human clinical trials of NR-LU-10; format: in vivo; details: over 565 patients
Protocol: The hybridoma secreting NR-LU-10 was developed by fusing mouse splenocytes immunized with intact cells of a human small cell lung carcinoma with P3×63/Ag8UI murine myeloma cells. After establishing a seed lot, the hybridoma was grown via in vitro cell culture methods, purified and verified for purity and sterility.

B1: NR-LU-10: 150 kilodalton IgG2b monoclonal antibody recognizing an approximately 40 kilodalton glycoprotein antigen expressed on most carcinomas (antibody, V domains shown)
VH: EVQLQQSGAELVKPGASVRLSCTASGFNIKDTYMHWVIERPEQGLEWIGRIDPANGNTKCDPKFQGKATITADTSSNTAYLQLSSLTSEDTAVYYCSREVLTGTWSLDYWGQGTSVTVSS
VL: DIQMIQSPSSMFASLGDRVSLSCRASQGIRGNLDWYQQKPGGTIKLLIYSTSNLNSGVPSRFSGSGSGSDYSLTISSLDSEDFADYYCLQRNAYPYTFGGGTKLEIK
# Pos/Exam (NR-LU-10 antigen; Breast Adenocarcinoma): 23/23
Intensity Avg. (rated 0-3) (NR-LU-10 antigen; Breast Adenocarcinoma): 2.9
Percent Avg. (cells stained) (NR-LU-10 antigen; Breast Adenocarcinoma): 97%
Uniformity Avg. (rated 0-3) (NR-LU-10 antigen; Breast Adenocarcinoma): 2.8
# Pos/Exam (NR-LU-10 antigen; Colon Carcinoma): 12/12
Intensity Avg. (rated 0-3) (NR-LU-10 antigen; Colon Carcinoma): 2.9
Percent Avg. (cells stained) (NR-LU-10 antigen; Colon Carcinoma): 98%
Uniformity Avg. (rated 0-3) (NR-LU-10 antigen; Colon Carcinoma): 2.9
# Pos/Exam (NR-LU-10 antigen; Liposarcoma): 0/2
Intensity Avg. (rated 0-3) (NR-LU-10 antigen; Liposarcoma): 0
Percent Avg. (cells stained) (NR-LU-10 antigen; Liposarcoma): 0%
Uniformity Avg. (rated 0-3) (NR-LU-10 antigen; Liposarcoma): 0
# Pos/Exam (NR-LU-10 antigen; Lung Adenocarcinoma): 8/8
Intensity Avg. (rated 0-3) (NR-LU-10 antigen; Lung Adenocarcinoma): 3
Percent Avg. (cells stained) (NR-LU-10 antigen; Lung Adenocarcinoma): 100%
Uniformity Avg. (rated 0-3) (NR-LU-10 antigen; Lung Adenocarcinoma): 2.2
# Pos/Exam (NR-LU-10 antigen; Lung Small Cell Carcinoma): 2/2
Intensity Avg. (rated 0-3) (NR-LU-10 antigen; Lung Small Cell Carcinoma): 3
Percent Avg. (cells stained) (NR-LU-10 antigen; Lung Small Cell Carcinoma): 100%
Uniformity Avg. (rated 0-3) (NR-LU-10 antigen; Lung Small Cell Carcinoma): 2
# Pos/Exam (NR-LU-10 antigen; Lung Squamous Cell Carcinoma): 8/8
Intensity Avg. (rated 0-3) (NR-LU-10 antigen; Lung Squamous Cell Carcinoma): 2.3
Percent Avg. (cells stained) (NR-LU-10 antigen; Lung Squamous Cell Carcinoma): 73%
Uniformity Avg. (rated 0-3) (NR-LU-10 antigen; Lung Squamous Cell Carcinoma): 1.8
# Pos/Exam (NR-LU-10 antigen; Lymphoma): 0/2
Intensity Avg. (rated 0-3) (NR-LU-10 antigen; Lymphoma): 0
Percent Avg. (cells stained) (NR-LU-10 antigen; Lymphoma): 0%
Uniformity Avg. (rated 0-3) (NR-LU-10 antigen; Lymphoma): 0
# Pos/Exam (NR-LU-10 antigen; Malignant Melanoma): 0/11
Intensity Avg. (rated 0-3) (NR-LU-10 antigen; Malignant Melanoma): 0
Percent Avg. (cells stained) (NR-LU-10 antigen; Malignant Melanoma): 0%
Uniformity Avg. (rated 0-3) (NR-LU-10 antigen; Malignant Melanoma): 0
# Pos/Exam (NR-LU-10 antigen; Malignant Melanoma Ocular): 0/2
Intensity Avg. (rated 0-3) (NR-LU-10 antigen; Malignant Melanoma Ocular): 0
Percent Avg. (cells stained) (NR-LU-10 antigen; Malignant Melanoma Ocular): 0%
Uniformity Avg. (rated 0-3) (NR-LU-10 antigen; Malignant Melanoma Ocular): 0
# Pos/Exam (NR-LU-10 antigen; Osteosarcoma): 1/1
Intensity Avg. (rated 0-3) (NR-LU-10 antigen; Osteosarcoma): 2
Percent Avg. (cells stained) (NR-LU-10 antigen; Osteosarcoma): 20%
Uniformity Avg. (rated 0-3) (NR-LU-10 antigen; Osteosarcoma): 1
# Pos/Exam (NR-LU-10 antigen; Ovarian Carcinoma): 35/35
Intensity Avg. (rated 0-3) (NR-LU-10 antigen; Ovarian Carcinoma): 2.9
Percent Avg. (cells stained) (NR-LU-10 antigen; Ovarian Carcinoma): 100%
Uniformity Avg. (rated 0-3) (NR-LU-10 antigen; Ovarian Carcinoma): 2.2
# Pos/Exam (NR-LU-10 antigen; Pancreas Carcinoma): 6/6
Intensity Avg. (rated 0-3) (NR-LU-10 antigen; Pancreas Carcinoma): 3
Percent Avg. (cells stained) (NR-LU-10 antigen; Pancreas Carcinoma): 100%
Uniformity Avg. (rated 0-3) (NR-LU-10 antigen; Pancreas Carcinoma): 2.3
# Pos/Exam (NR-LU-10 antigen; Prostate Carcinoma): 9/9
Intensity Avg. (rated 0-3) (NR-LU-10 antigen; Prostate Carcinoma): 2.8
Percent Avg. (cells stained) (NR-LU-10 antigen; Prostate Carcinoma): 95%
Uniformity Avg. (rated 0-3) (NR-LU-10 antigen; Prostate Carcinoma): 2
# Pos/Exam (NR-LU-10 antigen; Renal Carcinoma): 8/9
Intensity Avg. (rated 0-3) (NR-LU-10 antigen; Renal Carcinoma): 2.2
Percent Avg. (cells stained) (NR-LU-10 antigen; Renal Carcinoma): 83%
Uniformity Avg. (rated 0-3) (NR-LU-10 antigen; Renal Carcinoma): 1
# Pos/Exam (NR-LU-10 antigen; Synovial Sarcoma): 0/1
Intensity Avg. (rated 0-3) (NR-LU-10 antigen; Synovial Sarcoma): 0
Percent Avg. (cells stained) (NR-LU-10 antigen; Synovial Sarcoma): 0%
Uniformity Avg. (rated 0-3) (NR-LU-10 antigen; Synovial Sarcoma): 0
# Pos/Exam (NR-LU-10 antigen; Undifferentiated Carcinoma): 1/1
Intensity Avg. (rated 0-3) (NR-LU-10 antigen; Undifferentiated Carcinoma): 2
Percent Avg. (cells stained) (NR-LU-10 antigen; Undifferentiated Carcinoma): 90%
Uniformity Avg. (rated 0-3) (NR-LU-10 antigen; Undifferentiated Carcinoma): 2
# Pos/Exam (NR-LU-10 antigen; Uterine Leiomyosarcoma): 0/1
Intensity Avg. (rated 0-3) (NR-LU-10 antigen; Uterine Leiomyosarcoma): 0
Percent Avg. (cells stained) (NR-LU-10 antigen; Uterine Leiomyosarcoma): 0%
Uniformity Avg. (rated 0-3) (NR-LU-10 antigen; Uterine Leiomyosarcoma): 0
safety in human clinical trials [1]: safely administered
